Square brackets hold non-standard residues; d marks the D form. * marks the point of attachment. Cbz = O=C(OCc1ccccc1)*
How the values were obtained:
[1] = test system: U266 cells; assay: [3H]thymidine incorporation assay, DTP3 and bortezomib as single agents or in combination, U266; details: Homo sapiens, U-266, 48 h, read-out: IC50 value as single agent
Method: (§2) Treatments with DTP3 were for 6 days; bortezomib was added to the cell cultures 48 hr prior to the measurement of cell viability. For the combination treatment, DTP3 was used at the concentrations of 3 nM in U266 cells and of 10 nM in KMS-12 cells, whereas bortezomib was used at increasing concentrations, as shown.
Viability data from the experiment shown in FIG. 12 were converted into values representing the fraction of cells affected (FA) equaling 0.5 in the drug-treated cultures compared with untreated cultures, and the interaction of DTP3 with bortezomib was analysed according to the Chou-Talalay method (Chou, 2006). Also shown are the drug concentrations giving the FA value of 0.5 and the description of the CI. […]
(§3) [^3H]Thymidine incorporation assays were performed using standard protocols (Griffiths and Sundaram, 2011). […] At 24, 72 or 144 hr, cells were incubated for an additional 16 hr with 0.037 MBq/well of [^3H]thymidine (Amersham), and then harvested onto glass fibre filter mats using a 96-well plate automated Tomtec cell harvester (Receptor Technologies) and analysed by liquid scintillation spectroscopy with a LKB Wallac Trilux Microbeta 3 b-counter (PerkinElmer). Values were expressed as the percentage of the counts per minute (cpm) measured in the treated cultures relative to the cpm measured in the respective untreated cultures. […]

[2] = test system: KMS-12 cells; assay: [3H]thymidine incorporation assay, DTP3 and bortezomib as single agents or in combination, KMS-12; details: Homo sapiens, 48 h, read-out: IC50 value as single agent
Method: as §2
Viability data from the experiment shown in FIG. 12 were converted into values representing the fraction of cells affected (FA) equaling 0.5 in the drug-treated cultures compared with untreated cultures, and the interaction of DTP3 with bortezomib was analysed according to the Chou-Talalay method (Chou, 2006). Also shown are the drug concentrations giving the FA value of 0.5 and the description of the CI. Based on the Chou-Talalay equation (Chou, 2006), synergy is present when the CI is less than 1.0 (where values between 0.3 and 0.7 denote synergism, and values between 0.1 and 0.3 denote strong synergism); the combination is additive when CI equals 1.0, and antagonistic when it is more than 1.0 (Chou, 2006).
as §3
The activities of DTP3 and bortezomib in the U266 and KMS-12 myeloma cell lines, both as single agents and in combination, were determined using [^3H]thymidine incorporation assays, performed as described above in “Cell Proliferation, Cell Death, and Apoptosis Assays”. The IC50 values of bortezomib as single agent were determined at 48 hr using 9 concentrations of drug, ranging from 0.1 to 1,000 nM.

[3] = test system: diffuse large B-cell lymphoma (DLBCL) cell lines; assay: PI nuclear staining assay, apoptotic cells in DLBCL cell lines; format: cell-based, human; details: 6 days; sensitive and insensitive DLBCL cell lines; baseline level
Method: Current treatment of diffuse large B-cell lymphoma typically involves treatment with combination therapy, such as cyclophosphamide, doxorubicin, vincristine and prednisone (CHOP), or rituximab, cyclophosphamide, doxorubicin, vincristine and prednisone (R-CHOP). With those current treatments, many patients relapse and/or develop drug resistance at some point. The potential of the Gadd45β/MKK7 inhibitor DTP3 to operate in these settings was evaluated, by determining levels of apoptosis in diffuse large B-cell lymphoma cell lines known to be resistant to current therapies (HT, SU-DHL-8, U-2932, RC-K8 and RIVA, see for example Kaneko et al, Clinical Cancer Research, 2014, 20, p 1814-1820; Naylor et al, Cancer Research, 2011, Volume 71, p 2643-2653; Lyu et al, Cancer Research, 2013, Volume 73, Issue 8, Supplement 1), following treatment of those cells with DTP3. These cells have CARD11, A20 and/or MYD88 mutations and are also known to be resistant to agents such as Bruton's tyrosine kinase inhibitors, spleen tyrosine kinase inhibitors, PI3K inhibitors and/or protein kinase C inhibitors.
The percentages of apoptotic cells are depicted.
A comparison was made between the ability of DTP3 to kill various DLBCL cell lines by apoptosis in vitro. Cell lines HT, SU-DHL-8, U-2932 and RC-K8 which are known to be sensitive to DTP3; and insensitive cell lines RI-1, NU-DUL-1, TMD8, and HBL1 were used. Cell death was assessed using a standard propidium iodide (PI) nuclear staining assay followed by flow cytometry whereby the proportion of cells with a sub G1-DNA content was measured after cells had been exposed to DTP3 for 6 days at 10 μM. As controls, further populations of cells were left untreated (UT) or were treated with a scrambled D-tripeptide (SCR) for 6 days.
Apoptosis analyses were performed using propidium iodide (PI) nuclear labelling, as described previously (Riccardi and Nicoletti, 2006). Briefly, cells were seeded at a density of 2×10^5 cells/well into wells of either 24- or 48-well plates and cultured in the presence or absence of treatment, as shown. Cells were then fixed in 70% ice-cold ethanol for 16 hr, washed in PBS, and treated with ribonuclease A (50 μg/mL) for 30 min at room temperature. Samples were finally stained with PI (50 μg/mL) in 0.1% sodium citrate buffer for 2 to 4 hr at 4° C. in the dark, and data were acquired using a FACSCalibur automated system (Becton Dickinson) and analysed with FlowJo.

[4] = molecular target: T1, Gadd45β/MKK7 complex (Homo sapiens, UniProt O14733); assay: co-immunoprecipitation assay; format: binding; details: anti-FLAG immunoprecipitates, HEK-293T lysates
T1 construct: expressed in transfected cells; host or cells: human HEK-293T
T1 sequence (O14733 1-419): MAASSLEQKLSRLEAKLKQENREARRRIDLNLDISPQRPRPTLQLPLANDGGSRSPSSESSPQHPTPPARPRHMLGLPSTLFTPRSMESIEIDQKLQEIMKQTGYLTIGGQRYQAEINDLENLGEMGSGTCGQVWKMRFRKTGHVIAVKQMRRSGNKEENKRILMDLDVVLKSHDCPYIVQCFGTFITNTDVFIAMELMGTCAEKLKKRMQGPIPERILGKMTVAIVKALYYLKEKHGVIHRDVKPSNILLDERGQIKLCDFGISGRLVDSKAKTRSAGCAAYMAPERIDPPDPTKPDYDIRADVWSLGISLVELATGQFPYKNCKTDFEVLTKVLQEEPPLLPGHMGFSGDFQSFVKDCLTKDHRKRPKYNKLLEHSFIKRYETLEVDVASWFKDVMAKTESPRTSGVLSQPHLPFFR
Method: (§1) Values express the percentage of live cells present in the treated cultures relative to the live cells present in the respective untreated cultures and denote means±SD ([WM]; n=3). UT, untreated. […] Values express the percentage of inhibition of Gadd45β binding to MKK7 relative to the binding measured in the absence of peptide. […] Co-immunoprecipitations (IP) were performed using an anti-FLAG antibody (a-FLAG); western blots (WB) were developed using an anti-HA or an anti-MKK7 antibody, as shown.
Co-immunoprecipitation assays were performed as described previously (Papa et al., 2004). Briefly, human HEK-293T cells were seeded at a density of 1.8-2.2×10^6 cells/dish in […] tissue-culture dishes and then transfected with pcDNA-FLAG-hMKK7 and pcDNA-HA-hGADD45β by using the calcium phosphate precipitation method (Papa et al., 2004). 48 hr after transfection, cells were washed with PBS and then lysed in lysis buffer supplemented with protease inhibitors (1 mM phenylmethylsulfonylfluoride, 10 μM chymostatin, 2 μg/mL aprotinin, 2 μg/mL leupeptin; Roche) for 30 min in ice. Cell lysates were cleared by centrifugation at 45,000×g for 40 min and then used for co-immunoprecipitations with anti-FLAG M2 Affinity Gel (Sigma-Aldrich), binding to FLAG-tagged MKK7. Western blots were developed using an anti-HA (binding to HA-hGADD45β) or an anti-MKK7 antibody. […]

[5] = molecular target: GST-MKK7 (full-length human MKK7 fused to an N-terminal GST tag) (human) (UniProt O14733); assay: ELISA Gadd45β/MKK7 competition; after 48-hr pre-incubation with human serum at 37 C
[6] = molecular target: GST-MKK7 (full-length human MKK7 fused to an N-terminal GST tag) (human) (UniProt O14733); assay: ELISA Gadd45β/MKK7 competition; without serum pre-incubation
[7] = molecular target: GST-MKK7 (full-length human MKK7 fused to an N-terminal GST tag) (human) (UniProt O14733); assay: ELISA Gadd45β/MKK7 competition (summary sentence on FIGS. 4 to 8)
[8] = test system: multiple myeloma cell lines; assay: [3H]thymidine incorporation assay, survival of multiple myeloma cell lines; format: cell-based, human; details: for cytotoxic activity in multiple myeloma cell lines: 6-day treatment, all lines tested apart from RPMI-8226 and KMM-1; for IC50 values in the sensitive multiple myeloma cell lines: 144 hr, sensitive (Gadd45β-dependent) cell lines
Method: as §1
[^3H]Thymidine incorporation and trypan blue exclusion assays were performed using standard methods (Mauro et al., 2011). […] Apoptosis analyses were performed using PI staining as described in Mauro et al., 2011. Additional details are provided in the Supplemental Experimental Procedures.

[9] = mouse, in vivo
Method: In vitro pharmacokinetic assays were performed according to established, in-house protocols and included: plasma stability (human), thermodynamic solubility (PBS pH 7.4, at 37° C. for 14 days), microsomal stability (human), plasma protein binding (PPB; mouse and human), and distribution coefficient (Log D). In vivo pharmacokinetic analyses were also performed at Cyprotex according to established, in-house protocols. Briefly, the peptides were dissolved in PBS and administered by single intravenous injection to CD1 male mice at the dose of 10 mg/kg (25-30 g of total body weight; n=3 mice per time point per compound). Blood samples were collected in heparinized tubes at up to 7 time points after this injection (i.e. 0.08, 0.25, 0.5, 1, 2, 4 and 8 hr), and the plasma concentrations of the test peptide were determined at each time point by LC-MS/MS, using a five-point standard curve covering a peptide concentration range from 3 to 3,000 ng/mL. Standard curves were prepared using blank plasma matrices and treated in the same manner as the test samples. […] Values were calculated from the data of the peptide plasma concentration versus time curves using a non-compartmental model analysis, as described elsewhere (Groulx, 2006; Landaw and Di Stefano 3rd, 1982). The doses of z-DTP2 and DTP3 predicted to achieve the therapeutic plasma concentration of 1 μM at the steady state were calculated from the measured pharmacokinetic values using the following equation: k0=k1×Vd×Cp (where Vd is expressed in L/kg; Cp is the plasma concentration at the steady state expressed in mg/L; k0 is the zero order input expressed in mg/kg/hr; k1 is the first order elimination constant [0.693/t1/2]).

CC(C)C[C@H](NC(=O)[C@H](Cc1ccccc1)NC(=O)c1cnccn1)B(O)O [bortezomib, reference compound]
IC50 [1]: 6 nM
IC50 [2]: 6 nM

Ac-Arg-Phe-Tyr-NH2 (Ac-[dR]-[dF]-[dY]-NH2) [SCRB, scrambled control D-tripeptide, reference compound]
percentage of apoptotic cells [3]: no more than 27.2%
disruption of the Gadd45β/MKK7 complex [4]: not

DTP3 (Acetyl-Tyr-Arg-Phe-NH2, all residues in the D configuration)
IC50 [5]: 0.13 nM
IC50 [6]: 0.16 nM

DTP3 (Acetyl-Tyr-Arg-Phe-NH2, all residues in the D configuration) (peptide)
IC50 [7]: < 1 nM

tetrapeptide Tyr-Asp-His-Phe, D-configuration, NH2 group at the C terminal, benzyloxycarbonyl group at the N terminal (Cbz-[dY][dD][dH][dF]-NH2) [z-DTP1]
cytotoxic activity in multiple myeloma cell lines [8]: potent and dose-dependent toxicity
IC50 values in the sensitive multiple myeloma cell lines [8]: low nM to low μM

tetrapeptide Tyr-Glu-Arg-Phe, D configuration, NH2 group at the C terminal, benzyloxycarbonyl group at the N terminal (Cbz-[dY][dE][dR][dF]-NH2) [z-DTP2]
predicted dose required to achieve the therapeutic plasma concentration of 1 μM at the steady state (k0) [9]: 3.61 mg/kg/h
cytotoxic activity in multiple myeloma cell lines [8]: potent and dose-dependent toxicity
IC50 values in the sensitive multiple myeloma cell lines [8]: low nM to low μM
